Measured values reported in patent publication US20230242586A1 (University of California, published 2023).
Bridge positions count the residues as written; N and C are the ends. Square brackets hold non-standard residues; d marks the D form.

B1: KD17 (peptide)
peptide: {CH2CO}-[dY]NYPYRPLELGWYCG-NH2
modifications: thioether N-14
notes: Chemically synthesized linker-free thioether macrocycle; in the mRNA display selection the same peptide stood as a peptide-mRNA/cDNA fusion
B2: KD1 (peptide)
peptide: {CH2CO}-[dY]IIVTEKFIWVHHCG-NH2
modifications: thioether N-14
notes: as for B1

Molecular target: T1, biotinylated K-Ras(G12D)·GppNHp (His-Avi-TEV-KRAS (G12D)) (human, biotin on the Avi tag (co-expressed BirA))
T1 construct: Loaded with GppNHp; the protocol for the biotinylated proteins tells of no tag cleavage; Used in the TR-FRET assay
Assay: TR-FRET Ras-Raf interaction assay: biotinylated K-Ras(G12D)·GppNHp with GST-Raf1-RBD, peptide titrated (competition)

Row | Binder | binding result
1 | B1 | binds
2 | B2 | binds
